Results on one molecule are retold here after publication PMC3859580, “The PS1 Hairpin of Mcm3 Is Essential for Viability and for DNA Unwinding In Vitro”.

This data set addresses Mcm2-7 complex (wild type) (Saccharomyces cerevisiae, UniProt P29469;P24279;P30665;P29496;P53091;P38132 1-868;1-971;1-933;1-775;1-1017;1-845). The data set can be described thus: EMSA; 5 mM ATP, 10 mM Mg acetate; 50-400 nM complex, 1 nM DNA; shifted band diminished by anti-Mcm7; EMSA: 20 mM Tris-HCl pH 7.5, 10 mM Mg acetate, 100 uM EDTA, 5 mM DTT, 5 mM ATP, 37 C, 10 min; 5% native TBE gel with 5% glycerol, 0.1% NP-40, 10 mM Mg acetate. The note with it: protein: recombinant; copies: 1;1;1;1;1;1; label: 5'-32P; single strand. For orientation: Mobility shift assays separate free from complexed probe on a gel.

B1: 90-base ssDNA oligonucleotide with (T)60 tail (ssDNA)
DNA: ATGTCCTAGCAAGCCAGAATTCGGCAGCGTCTTTTTTTTTTTTTTTTTTTTTTTTTTTTTTTTTTTTTTTTTTTTTTTTTTTTTTTTTTTT
Turning to B1, the binding result is recorded as “binds”.
